{
  "source": "IntAct's records for PubMed 32852592",
  "parents": {"B1": {"name": "Mitogen-activated protein kinase 13 (Homo sapiens), O15264 (parent)", "chain": "MSLIRKKGFYKQDVNKTAWELPKTYVSPTHVGSGAYGSVCSAIDKRSGEKVAIKKLSRPFQSEIFAKRAYRELLLLKHMQHENVIGLLDVFTPASSLRNFYDFYLVMPFMQTDLQKIMGMEFSEEKIQYLVYQMLKGLKYIHSAGVVHRDLKPGNLAVNEDCELKILDFGLARHADAEMTGYVVTRWYRAPEVILSWMHYNQTVDIWSVGCIMAEMLTGKTLFKGKDYLDQLTQILKVTGVPGTEFVQKLNDKAAKSYIQSLPQTPRKDFTQLFPRASPQAADLLEKMLELDVDKRLTAAQALTHPFFEPFRDPEEETEAQQPFDDSLEHEKLTVDEWKQHIYKEIVNFSPIARKDSRRRSGMKL"}},
  "data": [
    {"variants_of": "B1", "conditions": "with stat3_human STAT3, P40763", "values": [
      {"variant": "T180A;Y182A", "effect of a mutation on the interaction": "with no effect"}
    ]}
  ]
}
